Experimental data from patent US20190248902A1 (published 2019).

Key:
[1] = target: T1, human ASGR-1 (human, UniProt P07306 1-291); test: FACS ligand blocking on CHO-S ASGR-1 cells; labelled ligand biotin-GalNAc-PAA (synthetic sugar)
T1 construct: Stably expressed on CHO-S cells (CHO-S:huASGR-1); The method text says human or mouse ASGR-1 cells were used; also called huASGR-1; hASGR-1
T1 sequence: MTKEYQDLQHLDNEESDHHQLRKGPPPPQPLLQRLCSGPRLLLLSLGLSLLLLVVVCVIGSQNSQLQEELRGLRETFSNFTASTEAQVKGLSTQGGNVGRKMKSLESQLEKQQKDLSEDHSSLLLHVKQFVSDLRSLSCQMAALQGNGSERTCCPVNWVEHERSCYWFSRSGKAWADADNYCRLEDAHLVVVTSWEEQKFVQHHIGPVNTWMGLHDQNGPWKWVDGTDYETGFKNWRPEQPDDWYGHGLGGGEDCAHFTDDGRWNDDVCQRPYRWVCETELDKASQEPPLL
Method: (§1) All ASGR-1 antibodies that bound either human or mouse ASGR-1 stable CHO—S cells were then tested for ligand blocking using both a protein ligand and a synthetic sugar ligand. The method in brief is as follows: first, 20 ul of either CHO-Shuman or mouse ASGR-1 cells were added to wells of a 384 well plate (30 k cells/well) followed by spin and discarding the supernatant. Second, 10 ul of the antibodies (either purified from hybridoma supernatants or made recombinantly) were added in duplicate to the cells in a dilution series (200 nM top concentration, 1:2 serial dilution, 11 point curve) and were incubated for 30 min at 4 C. […] After 30 min incubation at 4C, the plate was spun and washed twice with FACS buffer+1 mM CaCl2 followed by the detection streptavidin-AF647 at 1:1000 dilution. After 30 min at 4C, the cells were spun and washed once and then 60 ul PI added at 1:1000 dilution and the plates delivered to a core flow cytometry facility. The plates were read and processed similarly to the cell binding method except the signal now represents an inhibition curve and typically decreases a function of increasing antibody concentration. IC50 nM potency and % Inhibition were reported. […] Differences in the ability of antibodies to block these two ligands could occur as a result of differences in, for example, avidity stemming from differences in the number and/or orientation of the ASGR binding terminal sugar residues of each ligand, steric hindrance between antibody and each ligand, and/or changes in the conformation of ASGR induced by antibody binding that selectively alters the binding of each ligand.

[2] = target: T1, human ASGR-1; test: FACS ligand blocking on CHO-S ASGR-1 cells; competitor biotinylated asialofetuin
Method: as §1

| Binder | % Inhibition [1] | IC50 [1] | % Inhibition [2] | IC50 [2] |
| --- | --- | --- | --- | --- |
| 56E5 (antibody, V domains shown) VH: QVQLVQSGAEVKKPGASVKVSCQASGYTFTGYHMHWVRQAPGQGLEWMGWINPNNNATNYAQKFQGRVTMTRDTSISTAYMELRRLRSDDTAVYHCARDGTSSFDYWGQGTLVTVSS VL: DIQMTQSPSSVSASVGDRVTITCRASQGIRKWLAWYQQKPGKAPKLLIYAASSLQSGVPSRFSGSGSGTDFTLTISSLQPEDFATYYCQQANSFPFTFGPGTKVDIK | 99% | 45 nM | 99% | 23 nM |
| 48B12 (antibody, V domains shown) VH: EVQLLESGGGLVQPGGSLRLSCAASGFTFSSYAMNWVRQAPGKGLEWVSAISGRGGNTFYADSVKGRFTISRDNSKNTLYLQMNSLRAEDTAVYYCAKRETYNWNYEGFDYWGQGTLVTVSS VL: SYELTQPPSVSVSPGQTARITCSGDALPKKYAYWYQQKSGQAPVLVIYEDSKRPSGIPERFSGSSSGTMATLTISGAQVEDEADYYCNSTDSSGNHVVFGGGTKLTVL | 94% | 86 nM | 99% | 19 nM |
| 75G3 (antibody, V domains shown) VH: QVQLQQWGAGLLKPSETLSLTCAVYGGSLSGSYWSWIRQPPGKGLEWIGEINLSGSTNYNPSLKSRVTISVDTSKSQFSLTLRSVTAADTAVYYCARDYGGLDYWGQGTLVTVSS VL: EIVLTQSPGTLSLSPGERATLSCRARQNVDSSYLAWYQQKPGQAPRLLIYGASSRATGIPDRFSGSGSGTDFTLTISRLEPEDFAVFYCQQYERSPWTFGQGTKVEIK | 99% | 115 nM | 99% | 29 nM |
| 22G5 (antibody, V domains shown) VH: EVQLLESGGGLVQPGGSLRLSCAASGFTFSSYAMNWVRQAPGMGLEWVSVISRSGGYTYYADSVKGRFTISRDNSKNTLYLQMNSLRAEDTAVYYCASRLAVAGSEAFDIWGQGTLVTVSS VL: DIQMTQSPSSLSASVGDRVTITCRASQNISSYLNWYQQKQGKAPKLLIYAASSLQNGVPSRFSGRGSGTDFTLTISSLQPEDFATYYCQQSYRTPLFTFGPGTKVDFK | 93% |  | 99% |  |
| 184E7 (antibody, V domains shown) VH: QVQLVQSGAEVKTPGASVKVSCRASGYTFTSYNMHWVRQVPGQGLEWMGWINPNNGGSNYTQKFQGRVTMTRDTSISTAYMELSRLRSDDTAVYYCARKFGDWGQGTLVTVSS VL: DIQMTQSPSSRSASIGERVTITCRASQGISNYLAWIQQKPGTAPKSLIYAASSLQSGVSSRFSGSGFGTDFTITISSVQREDFATYYCQQYNGYPFTFGHGTKVDIK | 99% | 10 nM | 99% | 23 nM |
| 54E9 (antibody, V domains shown) VH: QVQLVQSGAEVKKPGASVKVSCKASGYTFNSYGISWVRLAPGQGLEWMGWISAYNGNTKNAQKLQGRVTMTTDTSTSTAYMELRSLRSDDTAVYYCARHDFWSGYYKGMDVWGQGTTVTVSS VL: not shown | 19% | 100 nM | 75% | 50 nM |
| 26C4 (antibody, V domains shown) VH: QVQLVQSGAEVKKPGASVKVSCKASGYTFTNYDINWVRQASGQGLEWMGWMNPNSGNTGYAQRFQGRVTMTRNTSINTAYMELSSLRSEDTAVYYCASSSGWYYFDYWGQGTLVTVSS VL: not shown | 83% | 36 nM | 99% | 6.6 nM |
| 6G7 (antibody, V domains shown) VH: QVQLVESGGGVVQPGRSLRLSCAASGFTFSSYGMHWVRQTPGKGLEWVAIISYVGKNKYYADSVKGRFTISRDNSKNTLYLQMNSLRAEDTAVYYCARRGNSYGGYGMDVWGQGTTVTVSS VL: DIQMTQSPSSRSASVGDRVTITCQASQDISNYLNWCQQKPGKALKLLIYDASTLETGVPSRFSGSGSGTDFTFTISSVQPEDIATYYCQQYDNVPITFGQGTRLEIK | 0% | > 200 nM | 99% | 11 nM |
| 5E5 (antibody, V domains shown) VH: QVQLVESGGGVVQPGRSLRLSCAASGFTFSNYVMHWVRQAPGKGLEWVAVIWYDGSNKYYADSVKGRFTISRDNSKNTLYLQMNSLRAEDTAVYYCTREVYSSGWYDYGMDVWGQGTTVTVSS VL: DIQMTQSPSSLSASVGDRVTITCRASQGIRNDLGWYQQKPGKAPKRLIYAASSLQSGVPSRFSGSGSGTEFTLTISSLQPEDFATYYCLQHYSYPRTFGQGTKVEVK | 0% |  | 95% |  |
| 7F4 (antibody, V domains shown) VH: QLQLQESGPGLVKPSETLSLTCTVSGGSISRSSYYWGWIRQPPGKGLEWIGNIYYSGATYYNPSLKSRVTISVDTSTNQFSLKLSSVTAADTAVYYCARHSGSWSLDYWGQGTLVTVSS VL: DIQMTQSPSSLSASVGDRVTITCRTSQGIRNDLGWYQQKPGKAPKRLIYAASNLQSGVPSRFSGSGSGTEFTLTISSLQPEDFATYYCLQHSAYPLTFGGGTKVEIK | 30% | 0.24 nM | 99% | 2.6 nM |
| 7E11 (antibody, V domains shown) VH: QVQLVESGGGVVQPGRSLRLSCAASGFTFSSFGMHWVRQAPGKGLEWVAIIWHDGSNKYYADSVKGRFTISRDNSNNTLYLQMSSLRAEDTAVYYCARDLSMGGMDVWGQGTTVTVSS VL: DIQMTQSPSSLSASVGDRVTIACRASQNIISYLNWYQQKPGKAPKFLIYTASSLQSGVPSRFSGSGSGTDFTLTISSLQPEDFAIYYCQQTYSTPLTFGGGTKVEIK | 37% | 40 nM | 99% | 13 nM |

The remaining lines, values ahead:

| % Inhibition [1] | IC50 [1] | % Inhibition [2] | IC50 [2] | Binder |
| --- | --- | --- | --- | --- |
| 20% | 24 nM | 20% | 53 nM | 72G9 (antibody, V domains shown) VH: EVQLVESGGGLVKPGGSLRLSCAASGFTFSSYSMNWVRQAPGKGLEWVSSISGSSSYIYYADSVKGRFTISRDNAKNSLYLQMNSLRAEDTAVYFCARGGSRGFDPWGQGTLVTVSS VL: DIQMTQSPSSLSASVGDRVTITCRASQSITSYLNWYQQKPGKAPKLLIYTASSLQSGVPSRFSGSGSGTDFTLTISSLQPEDFATYYCQQSHSFPFTFGPGTKVDIK |
| 10% | 2.1 nM | 20% | 10 nM | 12D2 (antibody, V domains shown) VH: EVQLVESGGGLVKPGGSLRLSCAASGFTFSSYSMNWVRQAPGKGLEWVSSISSSSSYIYYADSVKGRFTISRDNAKNSLYLQMNSLRAEDTAVYYCARLGDYWGQGTLVAVSS VL: not shown |
| 77% | 40 nM | 99% | 11 nM | 25A4 (antibody, V domains shown) VH: QVLLVQSGAEVKRPGASVKVSCKASGYTFTNYDINWVRQATGQGLEWMGWMYPNSGNTGYAQKFQGRVTMTRNTSISTAYMELSSLRSEDTAVYYCASSSGWYYFDYWGQGTLVTVSS VL: DIVMTQFPDSLAVSLGERATIKCKSSQSVLYSSHNNNYLAWYQQKPGQPPKLLLYWASTRESGVPDRFSGSGSGTEFTLTISSLEAEDVAVYYCQQYYSTPPTFGQGTKVEIK |
| 99% | 17 nM | 99% | 7 nM | 29H8 (antibody, V domains shown) VH: QVQLVQSGAEVQKPGASVKVSCKASGYTFTNYDINWVRQATGQGLEWMGWMNPNSGNTGYAQRFQGRVTMTRNTSISAAYMELSSLRSEDTAVYYCASSSGWYYFDYWGQGTLVTVSS VL: not shown |
| 79% |  | 99% |  | 176H4 (antibody, V domains shown) VH: QVQLVESGGGVVQPGRSLRLSCAASGFTFSSYGMHWVRQAPGKGLEWVAIIWYDGSYKYYADSVKGRFTISRDNSKNTLYLQMSSLRAEDTAVYYCARDAHDFWSGYFAYWGQGALVTVSS VL: DIVMTQTPLSLSVTPGQPASISCKSSQSLLHGDGKTYLYWYLQKPGQPPQLLIYEVSNRFSGVPDRFSGSGSGTDFTLKISRVEAEDVGIYYCMQSIQIPWTFGQGTRVEIK |
| -30% | 20 nM | 96% | 14 nM | 7G4 (antibody, V domains shown) VH: QVQLVESGGGVVQPGRSLRLSCAASGFTFNNYVMHWVRQAPGKGLEWVAVIWYDGSNKYYADSVKGRFTISRDNSKNTLYLQMTSLRAEDTAVYYCAREKYSSNWYDYGMDVWGQGTTVTVSS VL: DIQMTQSPSSLSASVGDRVTITCRASQGIRNDLGWYQQRPGKAPKRLIYAASSLQSGVPSRFSGSGSGTEFTLTISSLQPEDSATYYCLHQYSYPRTFGQGTKVEIK |
